{"source": "paper PMC9119628", "about": "(PLoS Pathogens, 2022)", "binders": {"B1": {"name": "untagged EBOV VP35 wild type (natural protein)", "chain": "MTTRTKGRGHTAATTQNDRMPGPELSGWISEQLMTGRIPVSDIFCDIENNPGLCYASQMQQTKPNPKTRNSQTQTDPICNHSFEEVVQTLASLATVVQQQTIASESLEQRITSLENGLKPVYDMAKTISSLNRVCAEMVAKYDLLVMTTGRATATAAATEAYWAEHGQPPPGPSLYEESAIRGKIESRDETVPQSVREAFNNLNSTTSLTEENFGKPDISAKDLRNIMYDHLPGFGTAFHQLVQVICKLGKDSNSLDIIHAEFQASLAEGDSPQCALIQITKRVPIFQDAAPPVIHIRSRGDIPRACQKSLRPVPPSPKIDRGWVCVFQLQDGKTLGLKI"}}, "key": {"[1]": {"target": "T1, HA-NP (HA-tagged EBOV nucleoprotein) (Zaire ebolavirus (EBOV), UniProt P18272 1-739)", "T1 sequence": "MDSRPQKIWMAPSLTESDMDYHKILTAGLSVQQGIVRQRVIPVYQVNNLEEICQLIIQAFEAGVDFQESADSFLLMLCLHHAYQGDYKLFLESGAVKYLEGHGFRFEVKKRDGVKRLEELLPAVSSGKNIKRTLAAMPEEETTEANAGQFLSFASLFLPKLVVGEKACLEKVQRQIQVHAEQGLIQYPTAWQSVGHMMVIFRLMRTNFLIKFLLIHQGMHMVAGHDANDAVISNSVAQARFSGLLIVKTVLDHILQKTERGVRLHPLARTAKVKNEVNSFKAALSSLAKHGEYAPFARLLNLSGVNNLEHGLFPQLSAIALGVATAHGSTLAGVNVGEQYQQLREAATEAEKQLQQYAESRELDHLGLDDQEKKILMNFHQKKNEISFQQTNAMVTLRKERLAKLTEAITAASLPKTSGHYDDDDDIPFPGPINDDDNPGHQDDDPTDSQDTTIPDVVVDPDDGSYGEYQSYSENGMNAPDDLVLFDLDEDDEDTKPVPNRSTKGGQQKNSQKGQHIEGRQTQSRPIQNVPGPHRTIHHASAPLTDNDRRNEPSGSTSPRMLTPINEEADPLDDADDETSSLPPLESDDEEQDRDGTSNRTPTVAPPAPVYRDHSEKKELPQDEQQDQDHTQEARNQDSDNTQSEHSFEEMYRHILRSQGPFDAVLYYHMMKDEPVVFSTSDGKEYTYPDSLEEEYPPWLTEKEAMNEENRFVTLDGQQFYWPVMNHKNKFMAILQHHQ", "assay": "pull-down", "conditions": "one partner purified"}, "[2]": {"target": "T1, HA-NP (HA-tagged EBOV nucleoprotein)", "assay": "co-IP", "conditions": "partners not purified"}}}
{"binder": "B1", "values": [{"measurement": "fold change of binding, with OTU-wt co-expression against without OTU", "setting": "[1]", "result": 5, "unit": "fold"}, {"measurement": "fold change of binding, T6-KO against wt A549 cells", "setting": "[2]", "result": 6, "unit": "fold"}]}
